Common to all, as to assay: ITC; peptide (100 uM stock in ddH2O) titrated into PadeB1 or variant (5-10 uM) in the sample cell; 50 mM Tris, 5 mM MgCl2, pH 8.0; 25 °C; One Set of Sites model; triplicate
On the technique in general: Isothermal titration calorimetry measures the heat released or taken up as one component is titrated into another.

For test [1], the target named is PadeB1 (Paenibacillus dendritiformis C454).
Test [2] deals with PadeB1 W49A (Paenibacillus dendritiformis C454).
Test [3] addresses PadeB1 D79A (Paenibacillus dendritiformis C454).
The target of test [4] is PadeB1 I61A (Paenibacillus dendritiformis C454).
The target of test [5] is PadeB1 N40A (Paenibacillus dendritiformis C454).
In test [6] the target is PadeB1 Y38A (Paenibacillus dendritiformis C454).
In test [7] the target is PadeB1 D23A (Paenibacillus dendritiformis C454).
Test [8] concerns the target PadeB1 K28A (Paenibacillus dendritiformis C454).

In test [1], full-length precursor peptide GP-PadeA came in with a Kd of 4 nM.

For leader peptide of PadeA, the Kd in test [2] came to 140 nM; in test [3], 150 nM; in test [4] it was 73 nM; in test [5], 16 nM; in test [1], 5.3 nM; in test [6], 6.2 nM. Also, the Kd was 2.4 nM in test [7] and 2.7 nM in test [8].

As a reminder, the Kd is the constant that tells how readily two partners part at equilibrium.
